Assay results as given in patent publication US20250121064A1 (CARSGEN LIFE SCIENCES, published 2025).

Target: T1, human GPRC5D on cells (human, UniProt Q9NZD1 1-345)
T1 construct: MM.1S and NCI-H929 cells express it endogenously; also called huGPRC5D; CHOK1-huGPRC5D
Experiment: flow cytometry on CHOK1-huGPRC5D cells

T1 sequence (Q9NZD1 whole entry): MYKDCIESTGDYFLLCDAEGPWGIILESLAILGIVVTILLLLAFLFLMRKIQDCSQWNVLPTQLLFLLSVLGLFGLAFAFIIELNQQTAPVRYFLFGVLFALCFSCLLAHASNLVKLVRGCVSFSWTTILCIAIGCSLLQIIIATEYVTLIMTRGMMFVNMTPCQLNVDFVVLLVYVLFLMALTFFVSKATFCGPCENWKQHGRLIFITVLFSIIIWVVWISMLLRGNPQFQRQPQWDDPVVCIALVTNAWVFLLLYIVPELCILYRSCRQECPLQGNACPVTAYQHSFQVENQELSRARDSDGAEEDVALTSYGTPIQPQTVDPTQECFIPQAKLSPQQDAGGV

EC50 | Binder
1.93 nM | hybridoma antibody AB2 (IgG3-k) (antibody, V domains shown, Mouse hybridoma mIgG, IgG3 kappa) VH: VVKLVESGGGLVQPGGSLKLSCAASGFTFSNYGMSWVRQTPDTRLELVATINSNGGNTYYPDSVKGRFTISRDNAKNTLYLQMSSLKSEDTAIYYCVRAYSLTMDYWGQGTSVTVSS VL: DVVMTQTPLSLPVSLGDQASISCRSSQSLVHSNGNTYLHWYLQKPGQSPKLLIYKVSNRFSGVPDRFSGSGSGTDFTLKIIRVEAEDLGVYFCSQSTHVPPTFRAGTKLELKR
1.69 nM | hybridoma antibody AB1 (IgG2b-k) (antibody, V domains shown, Mouse hybridoma mIgG, IgG2b kappa) VH: EVQLQQSGPEVVKPGASMKISCKASGYSFTGYTMNWVKQSHGKNFEWIGLINPYNGGTSYNQKFKGKATLTVDKSSSTAYMELLSLTSEDSAVYYCTRGGFRAWFAFWGQGTLVTVSA VL: DIQMTQSPSSLSASLGERVSLTCRASQDIGSNLNWLQQEPDGTIKRLIYATSILDSGVPKRFSGSRSGSDYSLTISSLESEDFVDYYCLQYATFPNTFGGGTKLEIKR
